The target in assay [1] is adrenomedullin receptors in the lungs of dogs (dog). Description: cell-based or functional assay.
The target is the same in assay [2]. As to the kind of experiment: competition: displacement of iodine-labelled hAM from dog lungs.
Assay [3] deals with T1, adrenomedullin receptors in the lungs of dogs (dog, UniProt A0A8I3NWR4 23-462; A0A8I3MWA8 233-365).
T1 construct: also called AM1 (CRLR+RAMP2) receptor
The assay is described as above.

Positions of bridges follow the written chain, without caps; N, C: chain ends. No end group written: not given here.

Chain of adrenomedullin receptors in the lungs of dogs (dog) (chain, as listed by the source, chain 1 of 2): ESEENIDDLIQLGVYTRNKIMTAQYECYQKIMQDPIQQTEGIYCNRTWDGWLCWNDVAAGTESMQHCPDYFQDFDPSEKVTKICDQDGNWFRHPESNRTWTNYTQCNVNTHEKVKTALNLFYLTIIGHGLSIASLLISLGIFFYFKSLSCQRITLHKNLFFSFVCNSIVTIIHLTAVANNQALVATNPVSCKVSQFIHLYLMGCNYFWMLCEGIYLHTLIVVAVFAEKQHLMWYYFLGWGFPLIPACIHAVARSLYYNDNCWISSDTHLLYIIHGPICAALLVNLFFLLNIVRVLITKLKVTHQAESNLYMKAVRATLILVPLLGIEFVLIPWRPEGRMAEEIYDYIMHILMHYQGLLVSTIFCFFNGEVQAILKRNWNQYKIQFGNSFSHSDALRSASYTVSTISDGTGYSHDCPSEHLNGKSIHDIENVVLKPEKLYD
Chain of adrenomedullin receptors in the lungs of dogs (dog) (chain, as listed by the source, chain 2 of 2): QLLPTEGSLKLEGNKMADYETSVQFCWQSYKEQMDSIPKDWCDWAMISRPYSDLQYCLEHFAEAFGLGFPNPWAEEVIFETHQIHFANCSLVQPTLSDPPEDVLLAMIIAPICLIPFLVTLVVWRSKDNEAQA
T1 sequence (chain, as listed by the source, chain 1 of 2): as the sequence (chain, as listed by the source, chain 1 of 2) above
T1 sequence (chain, as listed by the source, chain 2 of 2): as the sequence (chain, as listed by the source, chain 2 of 2) above

As for “125I-rAM(1-50) (from UniProt P43145 94-143) (peptide)”, in assay [1], the mean single-pass pulmonary extraction of 125I-rAM(1-50), dogs in vivo, baseline was found to be 36.4% and the mean tracer 125I-rAM(1-50) extraction during a single pulmonary transit time, dog in vivo, one typical experiment, control is 30%. As for “CGRP (Phoenix Pharmaceuticals) (peptide)”, in assay [1], the single-pass pulmonary extraction of 125I-rAM(1-50) after administration of CGRP (100 nmol i.v.) is 40.6% and the single-pass pulmonary extraction of 125I-rAM(1-50), control before CGRP is 44.6%. Regarding “hCGRP (from UniProt P06881 83-119) (peptide)”, the IC50 (commonly the point on the concentration scale where inhibition reaches its midpoint) in assay [2] was determined as 440 nM. With “unlabelled rAM(1-50) (from UniProt P43145 94-143) (peptide)”, in assay [1], the mean extraction of 125I-rAM(1-50) in the same dog after injection of unlabelled rAM(1-50) came out at 12% and the mean single-pass pulmonary extraction of 125I-rAM(1-50) after administration of unlabelled rAM(1-50) (100 nmol i.v.) is 21.9%. In the case of TQAQLLRVGCVLGTCQVQNLSHRLWQLMGPAGRQDSAPVDPSSPHSY (peptide, UniProt Q7Z4H4 101-147, looked up) [hAM2], in assay [3], the IC50 came to 480 nM. TVQKLAHQIYQFTDKDKDNVAPRSKISPQGY-NH2 (also called C-terminal AM fragment) [hAM(22-52)] returned an IC50 in assay [3] of 810 nM.

B1: hAM2(16-47) (peptide, UniProt Q7Z4H4 116-147, looked up)
peptide: QVQNLSHRLWQLMGPAGRQDSAPVDPSSPHSY
modifications: ends and bridges not checked
notes: range 16-47; Numbering 16-47 is that of the mature AM2 peptide, not of the precursor entry
B1 yielded an IC50 in assay [3] of 980 nM.

B2: N-terminal acetylated human adrenomedullin (peptide)
peptide: Ac-YRQSMNNFQGLRSFGCRFGTCTVQKLAHQIYQFTDKDKDNVAPRSKISPQGY-NH2
modifications: ends and bridges not checked
notes: also called N-Ac hAM; N-terminal acetylated AM
In the case of B2, the IC50 in assay [3] worked out at 0.041 nM.

B3: linear human adrenomedullin hAM(1-52) (peptide)
peptide: YRQSMNNFQGLRSFGCRFGTCTVQKLAHQIYQFTDKDKDNVAPRSKISPQGY-NH2
modifications: cysteine pairing not given here
notes: also called hAM linear; linear hAM
B3 came in with an IC50 in assay [3] of 7.1 nM. Against the preceding molecule, the IC50 is about 170-fold higher.

B4: human adrenomedullin hAM(1-52), cyclic (peptide)
peptide: YRQSMNNFQGLRSFGCRFGTCTVQKLAHQIYQFTDKDKDNVAPRSKISPQGY-NH2
modifications: disulfide 16-21
notes: also called hAM (cyclic); cyclic hAM
Take B4: the IC50 in assay [3] turned out to be 0.055 nM. On the same count and under the same terms, next, SFGCRFGTCTVQKLAHQIYQFTDKDKDNVAPRSKISPQGY-NH2 (ends and bridges not checked) [hAM(13-52)]: 34 nM.

The values above are taken from patent US20090028790A1 (INSTITUT DE CARDIOLOGIE DE MONTREAL, published 2009).
